From paper PMC7496778, “Characterizing the original anti‐C5 function‐blocking antibody, BB5.1, for species specificity, mode of action and interactions with C5” (Immunology, 2020) come the findings set out here.

For test [1], the target named is T1, human complement component 5 (C5) (Homo sapiens, UniProt P01031).
T1 construct: complement C5 beta chain, human, cut from the C5 precursor; complement C5 alpha chain, human, cut from the C5 precursor; also called human C5; source: purified in-house
Briefly: ELISA; direct ELISA; plates coated with mouse or human C5 (0.5 µg/ml, bicarbonate buffer pH 9.6); BB5.1 intact mAb 5-0 µg/ml or Fab 20-0 µg/ml in 0.2% BSA-PBS, 1 hr at 37°; HRP-labelled secondary antibody. The note with it: both partners purified. (In general: In an ELISA, binding on a coated surface is turned into a signal by an enzyme label.)

Test [2] has as its target T2, mouse complement component 5 (C5) (Mus musculus, strain , UniProt P06684).
T2 construct: complement C5 beta chain (80 000 MW), mouse, cut from the C5 precursor; complement C5 alpha chain (115 000 MW), mouse, cut from the C5 precursor; also called mouse C5; intact C5; source: purified in-house
Briefly: SPR; Biacore T200; BB5.1 immobilised on CM5 chip by amine coupling (~200 RU); mouse C5 flowed at 52-4 nM in HBS-EP (10 mM HEPES, 150 mM NaCl, 0.05% surfactant P20), 30 µl/min, 25°; Langmuir 1:1 binding model. The settings on record: both partners purified.

T1 sequence (P01031 whole entry, looked up): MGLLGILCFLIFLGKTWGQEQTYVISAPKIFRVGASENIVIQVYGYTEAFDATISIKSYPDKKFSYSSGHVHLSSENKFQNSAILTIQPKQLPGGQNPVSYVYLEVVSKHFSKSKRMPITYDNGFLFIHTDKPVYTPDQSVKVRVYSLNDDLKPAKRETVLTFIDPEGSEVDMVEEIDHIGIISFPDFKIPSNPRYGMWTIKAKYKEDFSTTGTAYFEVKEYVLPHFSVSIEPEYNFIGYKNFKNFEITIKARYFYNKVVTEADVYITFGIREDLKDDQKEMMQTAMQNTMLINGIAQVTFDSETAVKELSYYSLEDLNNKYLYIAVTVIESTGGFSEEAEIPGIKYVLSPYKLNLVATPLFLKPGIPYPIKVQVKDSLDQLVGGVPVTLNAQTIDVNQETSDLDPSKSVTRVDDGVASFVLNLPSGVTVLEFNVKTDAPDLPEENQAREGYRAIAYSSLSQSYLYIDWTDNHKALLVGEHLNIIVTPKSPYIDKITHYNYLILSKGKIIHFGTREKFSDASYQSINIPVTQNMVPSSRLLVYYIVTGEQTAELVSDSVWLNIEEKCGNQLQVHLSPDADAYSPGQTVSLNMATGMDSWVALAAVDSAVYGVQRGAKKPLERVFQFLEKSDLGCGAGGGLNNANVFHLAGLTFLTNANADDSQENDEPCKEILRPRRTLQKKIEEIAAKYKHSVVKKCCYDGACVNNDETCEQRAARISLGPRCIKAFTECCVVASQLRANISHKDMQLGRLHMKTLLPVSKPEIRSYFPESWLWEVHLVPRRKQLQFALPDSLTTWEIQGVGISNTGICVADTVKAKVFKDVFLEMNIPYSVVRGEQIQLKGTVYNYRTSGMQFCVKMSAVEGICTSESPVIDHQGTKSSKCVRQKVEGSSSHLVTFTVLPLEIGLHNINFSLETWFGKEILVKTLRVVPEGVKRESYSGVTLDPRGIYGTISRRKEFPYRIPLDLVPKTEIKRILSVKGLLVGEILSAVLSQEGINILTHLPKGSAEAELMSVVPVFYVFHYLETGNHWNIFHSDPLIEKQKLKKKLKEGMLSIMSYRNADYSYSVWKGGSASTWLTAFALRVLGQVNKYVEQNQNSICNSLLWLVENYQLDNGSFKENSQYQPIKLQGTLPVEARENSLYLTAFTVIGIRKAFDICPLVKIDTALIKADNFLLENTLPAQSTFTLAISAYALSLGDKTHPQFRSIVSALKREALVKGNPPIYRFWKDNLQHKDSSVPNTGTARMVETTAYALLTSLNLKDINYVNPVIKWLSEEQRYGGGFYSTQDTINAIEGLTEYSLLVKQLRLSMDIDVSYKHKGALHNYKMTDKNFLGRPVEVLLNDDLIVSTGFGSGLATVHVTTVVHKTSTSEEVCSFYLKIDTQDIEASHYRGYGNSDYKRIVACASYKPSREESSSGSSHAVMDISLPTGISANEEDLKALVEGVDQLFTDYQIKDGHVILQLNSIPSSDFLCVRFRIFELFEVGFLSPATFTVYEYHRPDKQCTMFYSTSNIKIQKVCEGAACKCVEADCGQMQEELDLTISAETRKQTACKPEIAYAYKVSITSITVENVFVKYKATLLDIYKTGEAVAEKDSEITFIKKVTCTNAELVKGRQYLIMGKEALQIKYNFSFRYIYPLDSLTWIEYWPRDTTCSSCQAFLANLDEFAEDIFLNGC

B1: BB5.1 anti-C5 monoclonal antibody (intact mAb) (antibody, V domains shown)
VH: QVQLQQPGAELVRPGTSVKLSCKASGYTFTSSWMHWVKQRPGQGLEWIGVIDPSDSYTNYNQKFKGKATLTVDTSSSTAYMQLSSLTSEDSAVYYCARGGGSSYNRYFDVWGTGTTVTVSS
VL: NIMMTQSPSSLAVSAGEKVTMSCKSSQSVLYSSNQKNYLAWYQQKPGQSPKLLIYWASTRESGVPDRFTGSGSGTDFTLTISSVQAEDLAVYYCHQYLSSRTFGGGTKLEIK
notes: full variable heavy domain; full variable light domain; raised in C5-deficient mice; also called BB5.1 mAb; full-length BB5.1; source: BB5.1 hybridoma (re-cloned), purified on HiTrap Protein G sepharose
Turning to B1, the binding result in test [1] is “no binding (tested: 5 µg/ml)”. Moreover, in test [2], the Kd (usually a measure of binding affinity in units of concentration) is 8.1 nM and the off-rate (koff) (commonly the rate constant with which the complex falls apart) turned out to be 0.0013 s⁻¹.

B2: BB5.1 Fab fragments (Fab, V domains shown)
VH: B1 VH
VL: B1 VL
notes: as the VH of m1; as the VL of m1; Fab of a mouse IgG1, kappa antibody; also called BB5.1-derived Fab fragment; source: immobilized ficin digestion of purified BB5.1 mAb; Fc-containing proteins removed on Protein A or G column
On to B2, for which, in test [1], the binding result was “no binding (tested: 20 µg/ml)”.
